Reference: paper PMC6901024 (Journal of the American Chemical Society, 2019)

Biological target: the molecule itself
Assay: SEC

B1: His6-FtmOx1-Y140F (enzyme)
chain: MTVDSKPQLQRLAADADVDRMCRLLEEDGAFILKGLLPFDVVESFNRELDVQMAIPPPKGERLLADKYPPHFKYVPNVATTCPTFRNTVLINPVIHAICEAYFQRTGDYWLSAAFLREIESGMPAQPFHRDDATHPLMHFQPLEAPPVSLSVIFPLTEFTEENGATEVILGSHRWTEVGTPERDQAVLATMDPGDVLIVRQRVVHAGGGNRTTAGKPRRVVLAYFNSVQLTPFETYRTMPREMVESMTVLGQRMLGWRTMKPSDPNIVGINLIDDKRLENVLQLKAADSPA
In the case of B1, the “stoichiometry N” value is reported as 2.
